What was measured:
GFP-VPS26A (p.K297X) = GFP-VPS26A (p.K297X) (human, UniProt O75436 1-296); assay: affinity purification with mass spectrometry
[1] = target: SNX27 PDZ domain in the presence of VPS26A (p.K93E) (rat | human, UniProt Q8K4V4;O75436, p.K93E); assay: ITC
[2] = target: SNX27 PDZ domain in the presence of VPS26A (p.M112V) (rat | human, UniProt Q8K4V4;O75436, p.M112V); assay: ITC
Sequence of SNX27 PDZ domain in the presence of VPS26A (p.M112V) (O75436 whole entry M112V, the tested form may be a part, one chain of several): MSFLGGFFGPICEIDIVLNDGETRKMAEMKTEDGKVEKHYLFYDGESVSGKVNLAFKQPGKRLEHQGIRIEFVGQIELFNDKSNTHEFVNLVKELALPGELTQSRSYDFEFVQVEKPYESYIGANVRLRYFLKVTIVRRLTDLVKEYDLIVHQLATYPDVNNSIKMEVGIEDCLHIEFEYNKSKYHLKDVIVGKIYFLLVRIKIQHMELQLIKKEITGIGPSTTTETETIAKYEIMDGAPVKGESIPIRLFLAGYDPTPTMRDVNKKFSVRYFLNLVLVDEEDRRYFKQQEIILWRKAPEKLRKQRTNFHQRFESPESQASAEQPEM

Sequence of GFP-VPS26A (p.K297X) (O75436 1-296): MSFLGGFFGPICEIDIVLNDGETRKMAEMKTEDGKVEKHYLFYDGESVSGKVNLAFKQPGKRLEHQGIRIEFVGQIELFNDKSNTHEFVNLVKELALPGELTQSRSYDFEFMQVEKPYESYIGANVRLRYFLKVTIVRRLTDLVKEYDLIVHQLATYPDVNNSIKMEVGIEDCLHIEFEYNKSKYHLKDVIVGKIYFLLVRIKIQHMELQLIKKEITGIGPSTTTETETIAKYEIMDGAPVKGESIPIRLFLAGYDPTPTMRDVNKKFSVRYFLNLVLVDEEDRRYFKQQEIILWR
Sequence of SNX27 PDZ domain in the presence of VPS26A (p.K93E) (O75436 whole entry K93E, the tested form may be a part, one chain of several): as the sequence (O75436 whole entry M112V, the tested form may be a part, one chain of several) above, with K93E, V112M counted along it

| SILAC enrichment ratio, mutant over wild-type GFP-VPS26A (GFP-VPS26A (p.K297X)) | fold enhancement of binding over SNX27 PDZ domain alone [1] [fold] | fold enhancement of binding over SNX27 PDZ domain alone [2] [fold] | Binder |
| --- | --- | --- | --- |
| 17.2 |  |  | PKD2 (natural protein) MVNSSRVQPQQPGDAKRPPAPRAPDPGRLMAGCAAVGASLAAPGGLCEQRGLEIEMQRIRQAAARDPPAGAAASPSPPLSSCSRQAWSRDNPGFEAEEEEEEVEGEEGGMVVEMDVEWRPGSRRSAASSAVSSVGARSRGLGGYHGAGHPSGRRRRREDQGPPCPSPVGGGDPLHRHLPLEGQPPRVAWAERLVRGLRGLWGTRLMEESSTNREKYLKSVLRELVTYLLFLIVLCILTYGMMSSNVYYYTRMMSQLFLDTPVSKTEKTNFKTLSSMEDFWKFTEGSLLDGLYWKMQPSNQTEADNRSFIFYENLLLGVPRIRQLRVRNGSCSIPQDLRDEIKECYDVYSVSSEDRAPFGPRNGTAWIYTSEKDLNGSSHWGIIATYSGAGYYLDLSRTREETAAQVASLKKNVWLDRGTRATFIDFSVYNANINLFCVVRLLVEFPATGGVIPSWQFQPLKLIRYVTTFDFFLAACEIIFCFFIFYYVVEEILEIRIHKLHYFRSFWNCLDVVIVVLSVVAIGINIYRTSNVEVLLQFLEDQNTFPNFEHLAYWQIQFNNIAAVTVFFVWIKLFKFINFNRTMSQLSTTMSRCAKDLFGFAIMFFIIFLAYAQLAYLVFGTQVDDFSTFQECIFTQFRIILGDINFAEIEEANRVLGPIYFTTFVFFMFFILLNMFLAIINDTYSEVKSDLAQQKAEMELSDLIRKGYHKALVKLKLKKNTVDDISESLRQGGGKLNFDELRQDLKGKGHTDAEIEAIFTKYDQDGDQELTEHEHQQMRDDLEKEREDLDLDHSSLPRPMSSRSFPRSLDDSEEDDDEDSGHSSRRRGSISSGVSYEEFQVLVRRVDRMEHSIGSIVSKIDAVIVKLEIMERAKLKRREVLGRLLDGVAEDERLGRDSEIHREQMERLVREELERWESDDAASQISHGLGTPVGLNGQPRPRSSRPSSSQSTEGMEGAGGNGSSNVHV |
| 6.55 |  |  | DENND4C (natural protein) not shown |
|  | > 10 | > 10 | PPESESKV [Kir3.3 peptide (PPESESKV)] |

Reference: article PMC4987296 (The Journal of Cell Biology, 2016)
